# Test results published in US20170015742A1 (published 2017).
# Numbering of substitutions follows the chain as printed.
# T1: Cynomolgus monkey PDGF-BB (cynomolgus monkey, UniProt P01127 82-190 (human entry), limits assumed)
# T1 chain: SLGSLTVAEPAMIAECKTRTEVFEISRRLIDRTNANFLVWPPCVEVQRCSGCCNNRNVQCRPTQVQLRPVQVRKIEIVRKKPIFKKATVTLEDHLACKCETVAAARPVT
# B1: chBEW-10H2 (antibody, human IgG1, kappa, L234A L235A, V domains shown)
# VH: QIQLVQSGPELKKPGESVKISCKASGYSFTNFGLYWVKQAPGQGLQYMGWIDTETGKPTYADDFRGRFVFFLETSASTAYLQINNLKNEDMATYFCARVYGYPSWYFDFWGPGTMVTVSS
# VL: DIQMTQSPASLSTSLEEIVTITCQASQDIDNYLSWYQQKPGKSPQLLIHSATSLADGVPSRFSGSRSGTQFSLKIHRLQVEDTGIYYCLQHFFPPWTFGGGTKLELKR
# notes: also called chBEW-10H2-B9
# B2: CL-33578-IgG (antibody, V domains shown)
# VH: EVTLRESGPALVKPTQTLTLTCTFSGFSLSTYGMGVGWIRQPPGKALEWLANIWWDDDKYYNPSLKNRLTISKDTSKNQVVLTMTNMDPVDTATYYCARIQSGWTNYEFDYWGQGTMVTVSS
# VL: EIVLTQSPGTLSLSPGERATLSCERSSGDIGDSYVSWYQQKPGQAPRLVIYADDQRPSGIPDRFSGSGSGTDFTLTISRLEPEDFAVYYCQSYDINIDIVFGGGTKVEIK
# B3: CL-33587-IgG (antibody, V domains shown)
# VH: B2 VH with G103M, N106R, E108D
# VL: B2 VL
# B4: CL-33675-IgG (antibody, V domains shown)
# VH: B2 VH with Q101E, G103S, W104G, T105P, N106K, E108S
# VL: B2 VL with E24R, R25A, D29S, G31W, D32Y, Y34F, V49L, P57A, D94G, I99V
# B5: CL-33682-IgG (antibody, V domains shown)
# VH: B2 VH with Q101E, G103S, N106S, E108S
# VL: B2 VL with D29S, I30N, G31Y, S33T, V49L, Q55L, P57A, D94G, I99V
# B6: CL-33683-IgG (antibody, V domains shown)
# VH: B2 VH with Q101E, S102T, G103I, W104G, T105P, N106K, E108S
# VL: B2 VL with E24R, R25A, D29S, G31W, D32Y, Y34F, V49L, P57A, D94G, I99V
# B7: CL-33699-IgG (antibody, V domains shown)
# VH: B2 VH with V36I, Q101E, G103M, W104G, T105P, N106K, E108A
# VL: B2 VL with E24R, R25A, D29S, G31W, D32Y, Y34F, V49L, P57A, D94G, I99V
# B8: CL-33706-IgG (antibody, V domains shown)
# VH: B2 VH with Q101E, S102T, G103M, W104G, T105P, N106K, E108S
# VL: B2 VL with E24R, R25A, D29S, G31W, D32Y, Y34F, V49L, P57A, D94G, I99V
# B9: CL-33731-IgG (antibody, V domains shown)
# VH: B2 VH with Q101E, G103I, W104P, N106S, E108S
# VL: B2 VL with D29S, G31W, D32Q, P57A, S58T, N96D, I99V
# B10: CL-33737-IgG (antibody, V domains shown)
# VH: B2 VH with Q41K, Q101E, G103S, W104G, T105P, N106K, E108S
# VL: B2 VL with E24R, R25A, D29S, G31W, D32Y, Y34F, V49L, P57A, D94G, I99V
# B11: CL-33767-IgG (antibody, V domains shown)
# VH: B2 VH with Q101E, G103I, W104G, T105P, N106K, E108S
# VL: B2 VL with E24R, R25A, D29S, G31W, D32Y, Y34F, V49L, P57A, D94G, I99V
# B12: CL-33811-IgG (antibody, V domains shown)
# VH: B2 VH with Q101E, G103S, N106T, E108S
# VL: B2 VL with D29S, G31W, D32H, V49L, A52S, P57A, S58T, D94G, N96Y, I99V
# B13: CL-33812-IgG (antibody, V domains shown)
# VH: B2 VH with Q101E, G103N, W104P, T105W, N106K, E108S
# VL: B2 VL with G31W, D32Q, A52S, P57A, D94G, I99V
# B14: CL-33845-IgG (antibody, V domains shown)
# VH: B2 VH with Q101V, G103D, N106T, E108S
# VL: B2 VL with E24R, R25A, D29S, G31W, D32Y, Y34F, V49L, P57A, D94G, I99V
# B15: CL-33855-IgG (antibody, V domains shown)
# VH: B2 VH with Q101E, S102T, G103F, W104G, T105P, N106K, E108S
# VL: B2 VL with E24R, R25A, D29S, G31W, D32Y, Y34F, V49L, P57A, D94G, I99V
# B16: CL-33759-IgG (antibody, V domains shown)
# VH: B2 VH with Q101E, G103V, N106R, E108D
# VL: B2 VL with G31W, D32Q, S33T, A52G, P57A, N96D, V100T
# B17: CL-33820-IgG (antibody, V domains shown)
# VH: B2 VH with Q101E, G103S, W104F, N106S, E108S
# VL: B2 VL with E24K, D29S, G31Y, S33T, A52S, I95L, N96T, V100T
# B18: CL-33701-IgG (antibody, V domains shown)
# VH: B2 VH with Q101E, G103L, W104G, N106S, E108S
# VL: B2 VL with G31W, S33Y, I95L, N96F, I99V, V100T
# B19: CL-33803-IgG (antibody, V domains shown)
# VH: B2 VH with Q101E, G103L, W104P, N106S, E108S
# VL: B2 VL with G31W, S33T, V49L, N96I
# B20: CL-33805-IgG (antibody, V domains shown)
# VH: B2 VH with Q101E, G103H, T105W, N106S, E108A
# VL: B2 VL with D29S, I30N, G31Y, S33T, V49L, Q55L, P57A, D94G, N96E, I97T
# Target: T2, Human VEGF-A 165 (human, UniProt P15692 207-395)
# T2 construct: Recombinant human VEGF165; also called huVEGF-A165; hVEGF165
# T2 sequence (P15692 other isoform, or with tags, fused parts or gaps): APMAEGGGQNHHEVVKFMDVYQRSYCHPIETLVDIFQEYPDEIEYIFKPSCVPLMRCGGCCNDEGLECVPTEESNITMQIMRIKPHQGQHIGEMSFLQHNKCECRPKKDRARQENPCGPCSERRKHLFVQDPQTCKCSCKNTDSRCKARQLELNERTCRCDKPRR
# Assay: SPR (Biacore), antibody captured by anti-human Fc, hVEGF165 as analyte
# Procedure: (§1) For example, approximately 9000 RU of goat anti-human Fc specific polyclonal antibody (Thermo Fisher Scientific Inc., Rockford, Ill.) diluted in 10 mM sodium acetate (pH 4.5) is directly immobilized across a CM5 research grade biosensor chip using a standard amine coupling kit according to manufacturer's instructions and procedures at 25 μg/ml. Unreacted moieties on the biosensor surface were blocked with ethanolamine. For kinetic analysis, rate equations derived from the 1:1 Langmuir binding model were fitted simultaneously to multiple antigen injections (using global fit analysis) with the use of Scrubber 2 (BioLogic Software), Biacore Biaevaluation 4.0.1 software or Biacore T100 Evaluation software. Purified antibodies or DVD-Ig molecules were diluted in running buffer for capture across goat anti-human Fc reaction surfaces. Antibodies or DVD-Ig molecules to be captured as a ligand (1 μg/ml) were injected over reaction matrices at a flow rate of 10 μl/minute. During the assay, all measurements were referenced against the capture surface alone (i.e., with no captured antibody or DVD-Ig molecule). […] The equilibrium dissociation constant KD (M) of the reaction between antibodies and the target antigen was then calculated from the kinetic rate constants by the following formula: KD=Koff/Kₒₙ. Binding was recorded as a function of time and kinetic rate constants were calculated.
Binder,Kd [pM],kon [M⁻¹ s⁻¹]
B1,13,2.8e+07

# Target: T3, Human PDGF-BB (human, UniProt P01127 82-190)
# T3 construct: Dimer of two B chains; also called hPDGF-BB; huPDGF-BB
# Assay: competition ELISA: antibody pre-incubated with hPDGF-BB-biotin, binding to coated hPDGF-Rβ-Fc
# Procedure: Plates were then washed four times with wash buffer (TBS, 0.05% Tween-20) and blocked with Superblock blocking buffer (Thermo Scientific, cat#37535). During the blocking step, supernatants, antibodies, benchmark compounds or DVD-Ig were diluted in assay diluent (10% Superblock containing 0.05% surfactamps) and an eight point titration of each sample molecule was performed. […] Following incubation, plates were washed four times with wash buffer. Detection reagent Streptavidin-polyHRP-40 (Fitzgerald, cat#65r-s104phrp) was diluted in assay diluent and added to plates (50 μL) for 45 minutes at 25° C. with shaking. Plates were washed four times with wash buffer and developed with the addition of Enhanced K-blue TMB substrate (Neogen, cat#308177). The reaction was stopped with 2N sulfuric acid (VWR, cat# BDH3500-1) and the absorbance was read at 450 nm-570 nm. […] Data was analyzed using Softmax Pro 4.8 software and IC₅₀ values calculated using a sigmoidal dose response (variable slope) fit in GraphPad Prism 5.
# Potency was evaluated in both cell-based and ELISA formats.
row,Binder,IC50 [pM]
1,B2,49
2,B3,< 100
3,B4,54
4,B5,69
5,B6,126
6,B7,72
7,B8,81
8,B9,68
9,B10,92
10,B11,114
11,B12,100
12,B13,43
13,B14,409
14,B15,162
15,B16,1270
16,B17,66
17,B18,59
18,B19,44
19,B20,63

# Target: T3, Human PDGF-BB
# Assay: Biacore SPR, antibody captured by anti-human Fc, PDGF-BB as analyte
# Procedure: as §1, with “Unreacted” for “For example, approximately 9000 RU of goat anti-human Fc specific polyclonal antibody (Thermo Fisher Scientific Inc., Rockford, Ill.) diluted in 10 mM sodium acetate (pH 4.5) is directly immobilized across a CM5 research grade biosensor chip using a standard amine coupling kit according to manufacturer's instructions and procedures at 25 μg/ml. Unreacted”, “calculated. In this assay, on-rates as fast as 10⁶M⁻¹s⁻¹ and off-rates as slow as 10⁻⁶ s⁻¹ could be measured. […]” for “calculated.”
Binder,Kd [pM],kon [M⁻¹ s⁻¹]
B2,≤ 0.3,≥ 9e+07
B3,≤ 0.22,≥ 9e+07
B4,0.61,3.6e+07
B5,≤ 0.24,≥ 9e+07
B6,0.44,1.9e+07
B8,0.69,1.8e+07
B9,0.2,8.1e+07
B12,0.45,2.7e+07
B13,0.3,6.3e+07
B15,≤ 0.05,2e+07
B17,≤ 0.16,≥ 9.8e+07
B18,0.24,7.3e+07
B19,≤ 0.16,≥ 9e+07
B20,0.21,6.8e+07

# Target: T1, Cynomolgus monkey PDGF-BB
# Assay: cell-based or functional assay
row,Binder,cynoPDGF-BB NIH-3T3 Proliferation IC50 [pM]
1,B2,23
2,B3,29
3,B4,24
4,B5,19
5,B6,28
6,B7,16
7,B8,19
8,B9,23
9,B10,24
10,B11,42
11,B12,12
12,B13,28
13,B14,73
14,B15,19
15,B16,180
16,B17,13
17,B18,12
18,B19,18
19,B20,18

# Target: T3, Human PDGF-BB
# Assay: cell-based or functional assay
row,Binder,hPDGF-BB NIH-3T3 Proliferation IC50 [pM]
1,B2,33
2,B3,46
3,B4,40
4,B5,30
5,B6,29
6,B7,33
7,B8,35
8,B9,36
9,B10,30
10,B11,90
11,B12,32
12,B13,33
13,B14,171
14,B15,37
15,B16,293
16,B17,17
17,B18,56
18,B19,24
19,B20,39
